# ± gives the standard deviation of the averaged measurements or the uncertainty stated by the source.
# Tests used:
# [1] = duplex formation free energy ΔG50 (Van't Hoff fit of HRM Tm); higher = less stable duplex; settings: temperature for dG: 50 °C, NaCl: 500 mM (unadjusted)
# Protocol: (§1)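 Duplex of the listed DNA strand with its complement, in 1x NNE buffer (500 mM NaCl, pH 7.0) with 1x EvaGreen. ΔH and ΔS come from a Van't Hoff linear fit of 1/Tm against ln(CT/4) over 1-20 uM, using HRM Tm values.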
# [2] = duplex melting temperature (HRM, EvaGreen); higher = more stable duplex
# Protocol: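 Listed DNA strand annealed 1:1 with its complementary strand (95 °C 5 min, 0.1 °C/s to 20 °C). Melted in 1x NNE buffer (500 mM NaCl, 10 mM Na2HPO4, 1 mM EDTA, pH 7.0) with 1x EvaGreen on a LightCycler96 (37 to 97 °C, 0.1 °C/s). Tm is the peak of -dF/dT at the stated total duplex concentration; 4 replicates are averaged. PS oligos are non-stereospecific (Rp/Sp mixtures).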
# [3] = duplex formation enthalpy ΔH (Van't Hoff fit of HRM Tm); higher = less exothermic duplex formation; settings: temperature for dG: 50 °C, NaCl: 500 mM (unadjusted)
# Protocol: as §1
# [4] = duplex formation entropy ΔS (Van't Hoff fit of HRM Tm); higher = smaller entropy loss on duplex formation; settings: temperature for dG: 50 °C, NaCl: 500 mM (unadjusted)
# Protocol: as §1
# [5] = backbone: PS-PO (listed strand fully phosphorothioate, complement phosphodiester)
# [6] = backbone: PS-PS (both strands fully phosphorothioate)
# [7] = duplex concentration 1 µM, backbone: PS-PS (both strands fully phosphorothioate)
# [8] = duplex concentration 2.5 µM, backbone: PO-PO (both strands phosphodiester DNA)
# [9] = duplex concentration 2.5 µM, backbone: PS-PO (listed strand fully phosphorothioate, complement phosphodiester)
# [10] = duplex concentration 2.5 µM, backbone: PS-PS (both strands fully phosphorothioate)
# [11] = duplex concentration 5 µM, backbone: PO-PO (both strands phosphodiester DNA)
# [12] = duplex concentration 5 µM, backbone: PS-PO (listed strand fully phosphorothioate, complement phosphodiester)
# [13] = duplex concentration 5 µM, backbone: PS-PS (both strands fully phosphorothioate)
# [14] = duplex concentration 7.5 µM, backbone: PO-PO (both strands phosphodiester DNA)
# [15] = duplex concentration 7.5 µM, backbone: PS-PO (listed strand fully phosphorothioate, complement phosphodiester)
# [16] = duplex concentration 7.5 µM, backbone: PS-PS (both strands fully phosphorothioate)
# [17] = duplex concentration 10 µM, backbone: PO-PO (both strands phosphodiester DNA)
# [18] = duplex concentration 10 µM, backbone: PS-PO (listed strand fully phosphorothioate, complement phosphodiester)
# [19] = duplex concentration 10 µM, backbone: PS-PS (both strands fully phosphorothioate)
# [20] = duplex concentration 15 µM, backbone: PO-PO (both strands phosphodiester DNA)
# [21] = duplex concentration 15 µM, backbone: PS-PO (listed strand fully phosphorothioate, complement phosphodiester)
# [22] = duplex concentration 15 µM, backbone: PS-PS (both strands fully phosphorothioate)
# [23] = duplex concentration 20 µM, backbone: PO-PO (both strands phosphodiester DNA)
# [24] = duplex concentration 20 µM, backbone: PS-PO (listed strand fully phosphorothioate, complement phosphodiester)
# [25] = duplex concentration 20 µM, backbone: PS-PS (both strands fully phosphorothioate)
# [26] = backbone: PO-PO (both strands phosphodiester DNA)
# [27] = duplex concentration 1 µM, backbone: PO-PO (both strands phosphodiester DNA)
Sequence,"duplex formation free energy ΔG50 [1, 5] [kcal/mol]","duplex formation free energy ΔG50 [1, 6] [kcal/mol]","duplex melting temperature [2, 7] [°C]","duplex melting temperature [2, 8] [°C]","duplex melting temperature [2, 9] [°C]","duplex melting temperature [2, 10] [°C]","duplex melting temperature [2, 11] [°C]","duplex melting temperature [2, 12] [°C]","duplex melting temperature [2, 13] [°C]","duplex melting temperature [2, 14] [°C]","duplex melting temperature [2, 15] [°C]","duplex melting temperature [2, 16] [°C]","duplex melting temperature [2, 17] [°C]","duplex melting temperature [2, 18] [°C]","duplex melting temperature [2, 19] [°C]","duplex melting temperature [2, 20] [°C]","duplex melting temperature [2, 21] [°C]","duplex melting temperature [2, 22] [°C]","duplex melting temperature [2, 23] [°C]","duplex melting temperature [2, 24] [°C]","duplex melting temperature [2, 25] [°C]","duplex formation enthalpy ΔH [3, 5] [kcal/mol]","duplex formation enthalpy ΔH [3, 6] [kcal/mol]","duplex formation entropy ΔS [4, 5] [cal/mol/K]","duplex formation entropy ΔS [4, 6] [cal/mol/K]","duplex formation free energy ΔG50 [1, 26] [kcal/mol]","duplex formation enthalpy ΔH [3, 26] [kcal/mol]","duplex formation entropy ΔS [4, 26] [cal/mol/K]","duplex melting temperature [2, 27] [°C]","duplex melting temperature ([2]; duplex concentration 1 µM, backbone: PS-PO (listed strand fully phosphorothioate, complement phosphodiester)) [°C]"
GAGGCAGCCGCGACCTG,-14.3 ± 0.27,-12.88 ± 0.078,63.68 ± 0.2,79.56 ± 0.14,72.02 ± 0.12,66.28 ± 0.29,81.39 ± 0.49,74.37 ± 0.34,68.52 ± 0.17,82.28 ± 0.58,75.9 ± 0.24,69.83 ± 0.094,82.97 ± 0.38,76.878 ± 0.05,70.65 ± 0.094,83.76 ± 0.16,77.946 ± 0.052,71.79 ± 0.097,84.53 ± 0.52,78.61 ± 0.15,72.633 ± 0.05,-78.6 ± 3.5,-76.7 ± 1.4,-199 ± 10,-198 ± 4,,,,,
TCTACACCGCGA,-9.65 ± 0.1,-8.523 ± 0.038,41.3 ± 0.82,,,45.5 ± 0.56,62.45 ± 0.36,57,48.18 ± 0.13,64.36 ± 0.22,58.2 ± 0.61,49.78 ± 0.41,65.78 ± 0.25,60.1 ± 0.43,52 ± 0.91,67.547 ± 0.058,61.71 ± 0.24,54.2 ± 1.4,68.14 ± 0.13,63.08 ± 0.18,,-46.4 ± 3.2,-44.4 ± 2.7,-114 ± 9.5,-111 ± 8.4,-10.8 ± 0.19,-54.3 ± 4.1,-135 ± 12,,
GAGCAGAAGGGGTTGT,-11.48 ± 0.05,-9.823 ± 0.063,49.7 ± 0.9,66.19 ± 0.54,60.88 ± 0.2,53.7 ± 0.54,68.16 ± 0.65,63.08 ± 0.15,55.97 ± 0.26,69.5 ± 0.73,64.37 ± 0.09,57.22 ± 0.19,70.88 ± 0.2,65.29 ± 0.073,57.97 ± 0.097,72.362 ± 0.008,66.57 ± 0.019,59.215 ± 0.054,73.62 ± 0.15,67.52 ± 0.11,60.08 ± 0.23,-70.9 ± 1.2,-63.9 ± 2.9,-184 ± 3.5,-167 ± 8.8,-12.4 ± 0.17,-68.3 ± 2.9,-173 ± 8.6,63.5 ± 1.7,58.19 ± 0.23
TTAACCTGCAATGGATC,-10.78 ± 0.066,-8.858 ± 0.019,45.6 ± 0.62,63.2 ± 0.41,57.18 ± 0.21,48.62 ± 0.33,65.13 ± 0.59,59.09 ± 0.26,50.69 ± 0.37,66.57 ± 0.28,60.587 ± 0.046,51.91 ± 0.21,67.55 ± 0.2,61.376 ± 0.056,52.76 ± 0.14,68.98 ± 0.14,62.586 ± 0.015,54.03 ± 0.099,70.06 ± 0.25,63.32 ± 0.095,54.97 ± 0.2,-73.7 ± 2,-67.1 ± 1.9,-195 ± 6.1,-180 ± 5.8,-11.83 ± 0.098,-68.7 ± 2,-176 ± 5.8,60.19 ± 0.12,
GGTTGCGGTGGCCAAC,,,,72.47 ± 0.19,,,74.78 ± 0.39,59.24 ± 0.17,,75.96 ± 0.48,59.89 ± 0.26,53.12 ± 0.24,76.87 ± 0.44,60.61 ± 0.24,53.68 ± 0.31,77.98 ± 0.31,61.52 ± 0.21,54.3 ± 0.32,78.76 ± 0.29,62.17 ± 0.44,54.47 ± 0.31,,,,,-14.7 ± 0.36,-83.4 ± 4.7,-213 ± 13,,
